Laboratory results taken from PMC10397247.
One block for each binder: values may come before it.

Assays:
4H3175-bH = target: T1, 4H3175-bH; assay: two-hybrid library CCNG1;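 also: natural log of median RNA to DNA barcode read ratio; higher means stronger binding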
T1 chain: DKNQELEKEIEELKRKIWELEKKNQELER

4H906-bH = target: T2, 4H906-bH; assay: two-hybrid library CCNG1;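 also: natural log of median RNA to DNA barcode read ratio; higher means stronger binding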
T2 chain: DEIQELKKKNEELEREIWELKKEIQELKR

4H3277-bH = target: T3, 4H3277-bH; assay: two-hybrid library CCNG1;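 also: natural log of median RNA to DNA barcode read ratio; higher means stronger binding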
T3 chain: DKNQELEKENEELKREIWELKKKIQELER

4H3628-bN = target: T4, 4H3628-bN; assay: two-hybrid library CCNG1;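 also: natural log of median RNA to DNA barcode read ratio; higher means stronger binding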
T4 chain: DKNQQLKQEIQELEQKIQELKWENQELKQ

4H850-bH = target: T5, 4H850-bH; assay: two-hybrid library CCNG1;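 also: natural log of median RNA to DNA barcode read ratio; higher means stronger binding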
T5 chain: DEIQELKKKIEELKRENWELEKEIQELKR

4H3628-bH = target: T6, 4H3628-bH; assay: two-hybrid library CCNG1;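 also: natural log of median RNA to DNA barcode read ratio; higher means stronger binding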
T6 chain: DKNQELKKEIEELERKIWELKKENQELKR

4H1899-bH = target: T7, 4H1899-bH; assay: two-hybrid library CCNG1
T7 chain: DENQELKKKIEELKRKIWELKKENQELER

4H1985-bH = target: T8, 4H1985-bH; assay: two-hybrid library CCNG1
T8 chain: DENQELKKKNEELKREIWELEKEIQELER

4H3298-bH = target: T9, 4H3298-bH; assay: two-hybrid library CCNG1
T9 chain: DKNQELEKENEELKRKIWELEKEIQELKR

4H3462-bH = target: T10, 4H3462-bH; assay: two-hybrid library CCNG1
T10 chain: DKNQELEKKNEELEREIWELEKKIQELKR

4H626-bH = target: T11, 4H626-bH; assay: two-hybrid library CCNG1
T11 chain: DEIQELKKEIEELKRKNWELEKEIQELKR

4H570-bH = target: T12, 4H570-bH; assay: two-hybrid library CCNG1
T12 chain: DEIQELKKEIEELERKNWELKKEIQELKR

4H3162-bH = target: T13, 4H3162-bH; assay: two-hybrid library CCNG1
T13 chain: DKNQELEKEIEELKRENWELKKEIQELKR

4H591-bH = target: T14, 4H591-bH; assay: two-hybrid library CCNG1
T14 chain: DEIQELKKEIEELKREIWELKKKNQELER

4H3613-bH = target: T15, 4H3613-bH; assay: two-hybrid library CCNG1
T15 chain: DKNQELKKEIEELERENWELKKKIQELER

4H3858-bH = target: T16, 4H3858-bH; assay: two-hybrid library CCNG1
T16 chain: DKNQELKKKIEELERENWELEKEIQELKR

4H3497-bH = target: T17, 4H3497-bH; assay: two-hybrid library CCNG1
T17 chain: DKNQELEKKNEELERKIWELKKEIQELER

4H3926-bH = target: T18, 4H3926-bH; assay: two-hybrid library CCNG1
T18 chain: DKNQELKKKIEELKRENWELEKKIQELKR

4H3817-bH = target: T19, 4H3817-bH; assay: two-hybrid library CCNG1
T19 chain: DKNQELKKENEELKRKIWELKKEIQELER

4H3414-bH = target: T20, 4H3414-bH; assay: two-hybrid library CCNG1
T20 chain: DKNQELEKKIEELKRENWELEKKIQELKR

4H3974-bH = target: T21, 4H3974-bH; assay: two-hybrid library CCNG1
T21 chain: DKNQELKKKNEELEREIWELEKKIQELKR

4H918-bN = target: T22, 4H918-bN; assay: two-hybrid library CCNG1
T22 chain: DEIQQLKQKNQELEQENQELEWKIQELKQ

4H568-bN = target: T23, 4H568-bN; assay: two-hybrid library CCNG1
T23 chain: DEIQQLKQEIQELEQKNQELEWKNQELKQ

4H754-bN = target: T24, 4H754-bN; assay: two-hybrid library CCNG1
T24 chain: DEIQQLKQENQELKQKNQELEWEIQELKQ

4H967-bN = target: T25, 4H967-bN; assay: two-hybrid library CCNG1
T25 chain: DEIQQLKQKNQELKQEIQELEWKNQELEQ

4H687-bN = target: T26, 4H687-bN; assay: two-hybrid library CCNG1
T26 chain: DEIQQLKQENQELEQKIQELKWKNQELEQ

4H953-bN = target: T27, 4H953-bN; assay: two-hybrid library CCNG1
T27 chain: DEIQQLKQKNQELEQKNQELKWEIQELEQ

4H72-bN = target: T28, 4H72-bN; assay: two-hybrid library CCNG1
T28 chain: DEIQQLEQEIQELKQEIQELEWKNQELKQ

4H462-bN = target: T29, 4H462-bN; assay: two-hybrid library CCNG1
T29 chain: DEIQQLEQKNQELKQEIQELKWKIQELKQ

4H4001-bN = target: T30, 4H4001-bN; assay: two-hybrid library CCNG1
T30 chain: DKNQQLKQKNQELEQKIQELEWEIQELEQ

4H607-bN = target: T31, 4H607-bN; assay: two-hybrid library CCNG1
T31 chain: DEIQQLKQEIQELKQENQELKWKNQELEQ

4H457-bN = target: T32, 4H457-bN; assay: two-hybrid library CCNG1
T32 chain: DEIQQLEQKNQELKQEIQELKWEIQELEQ

4H454-bN = target: T33, 4H454-bN; assay: two-hybrid library CCNG1
T33 chain: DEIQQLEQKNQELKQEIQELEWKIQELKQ

4H883-bN = target: T34, 4H883-bN; assay: two-hybrid library CCNG1
T34 chain: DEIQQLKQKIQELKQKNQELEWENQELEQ

4H717-bN = target: T35, 4H717-bN; assay: two-hybrid library CCNG1
T35 chain: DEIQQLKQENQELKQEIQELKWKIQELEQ

P6A-bS = target: T36, P6A-bS; assay: two-hybrid library CCNG1
T36 chain: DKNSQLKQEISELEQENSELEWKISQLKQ

4H908-bN = target: T37, 4H908-bN; assay: two-hybrid library CCNG1
T37 chain: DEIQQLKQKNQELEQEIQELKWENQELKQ

4H797-bN = target: T38, 4H797-bN; assay: two-hybrid library CCNG1
T38 chain: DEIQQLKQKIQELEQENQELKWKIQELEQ

AP3-AA = target: T39, AP3-AA; assay: two-hybrid library CCmax
T39 chain: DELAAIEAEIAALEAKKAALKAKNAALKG

P3-AA = target: T40, P3-AA; assay: two-hybrid library CCmax; details: mean of both orientations
T40 chain: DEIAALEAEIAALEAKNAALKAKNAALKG

P4-AA = target: T41, P4-AA; assay: two-hybrid library CCmax; details: mean of both orientations
T41 chain: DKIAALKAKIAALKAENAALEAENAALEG

P7-AA = target: T42, P7-AA; assay: two-hybrid library CCmax; details: mean of both orientations
T42 chain: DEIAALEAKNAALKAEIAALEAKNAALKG

P1-AA = target: T43, P1-AA; assay: two-hybrid library CCmax; details: mean of both orientations
T43 chain: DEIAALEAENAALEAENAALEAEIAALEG

AP6-AA = target: T44, AP6-AA; assay: two-hybrid library CCmax; details: mean of both orientations
T44 chain: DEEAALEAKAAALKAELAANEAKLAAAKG

AP8-AA = target: T45, AP8-AA; assay: two-hybrid library CCmax; details: mean of both orientations
T45 chain: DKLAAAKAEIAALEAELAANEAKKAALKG

P10-AA = target: T46, P10-AA; assay: two-hybrid library CCmax; details: mean of both orientations
T46 chain: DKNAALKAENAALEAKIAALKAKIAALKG

GCN2_T = assay: two-hybrid library CCmax
AP4-AA = target: T47, AP4-AA; assay: two-hybrid library CCmax; details: mean of both orientations
T47 chain: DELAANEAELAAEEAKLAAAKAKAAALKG

AP7-AA = target: T48, AP7-AA; assay: two-hybrid library CCmax; details: mean of both orientations
T48 chain: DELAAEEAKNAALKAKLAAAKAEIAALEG

P8-AA = target: T49, P8-AA; assay: two-hybrid library CCmax; details: mean of both orientations
T49 chain: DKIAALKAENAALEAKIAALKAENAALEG

P9-AA = target: T50, P9-AA; assay: two-hybrid library CCmax; details: mean of both orientations
T50 chain: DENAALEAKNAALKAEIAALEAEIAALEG

AP5-AA = target: T51, AP5-AA; assay: two-hybrid library CCmax; details: mean of both orientations
T51 chain: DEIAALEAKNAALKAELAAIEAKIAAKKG

P2-AA = target: T52, P2-AA; assay: two-hybrid library CCmax; details: mean of both orientations
T52 chain: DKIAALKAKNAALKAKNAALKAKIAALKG

P12-AA = target: T53, P12-AA; assay: two-hybrid library CCmax; details: mean of both orientations
T53 chain: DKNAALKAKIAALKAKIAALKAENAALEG

P11-AA = target: T54, P11-AA; assay: two-hybrid library CCmax; details: mean of both orientations
T54 chain: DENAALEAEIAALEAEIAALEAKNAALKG

interaction score (4H3175-bH): 0.0491
interaction score (4H906-bH): -0.666
interaction score (4H3277-bH): -0.392
interaction score (4H3628-bN): 0.735
interaction score (4H850-bH): -0.44
interaction score (4H3628-bH): 1.19
interaction score (4H1899-bH): 0.337
interaction score (4H1985-bH): 1.05
interaction score (4H3298-bH): -0.203
interaction score (4H3462-bH): 0.0285
interaction score (4H626-bH): -1.98
interaction score (4H570-bH): -1.69
interaction score (4H3162-bH): -0.289
interaction score (4H591-bH): -0.968
interaction score (4H3613-bH): -0.355
interaction score (4H3858-bH): -0.0187
interaction score (4H3497-bH): 0.766
interaction score (4H3926-bH): -0.236
interaction score (4H3817-bH): 0.356
interaction score (4H3414-bH): -0.169
interaction score (4H3974-bH): 0.298
Binder: DENQELKKKIEELKRKIWELKKENQELER [4H1899-bH]

interaction score (4H918-bN): -0.935
interaction score (4H568-bN): -2.33
interaction score (4H754-bN): -1.75
interaction score (4H967-bN): -2.32
interaction score (4H687-bN): -1.77
interaction score (4H953-bN): -1.5
interaction score (4H72-bN): -1.03
interaction score (4H462-bN): -0.667
interaction score (4H4001-bN): -0.804
interaction score (4H607-bN): -1.46
interaction score (4H457-bN): -0.688
interaction score (4H454-bN): 0.0134
interaction score (4H883-bN): -0.641
interaction score (4H717-bN): -1.63
interaction score (P6A-bS): -2.58
interaction score (4H908-bN): -1.27
interaction score (4H797-bN): -1.1
Binder: DKNQQLKQKNQELEQKIQELEWEIQELEQ [4H4001-bN]

interaction score (AP3-AA): 0.89
interaction score (P3-AA): -1.84
interaction score (P4-AA): 1.61
interaction score (P7-AA): -1.23
interaction score (P1-AA): -2.22
interaction score (AP6-AA): -1.78
interaction score (AP8-AA): -1.48
interaction score (P10-AA): -0.602
interaction score (GCN2_T): -1.8
interaction score (AP4-AA): -1.84
interaction score (AP7-AA): -1.93
interaction score (P8-AA): -1.45
interaction score (P9-AA): -1.41
interaction score (AP5-AA): -1.45
interaction score (P2-AA): -1.75
interaction score (P12-AA): -1.03
interaction score (P11-AA): -1.01
Binder: DELAAIEAEIAALEAKKAALKAKNAALKG [AP3-AA]
